The values below are quoted from earlier work in paper PMC3376167.

The target of this series is ARNT PAS-B (Homo sapiens) (UniProt P27540).
Sequence of ARNT PAS-B (Homo sapiens) (P27540 356-470): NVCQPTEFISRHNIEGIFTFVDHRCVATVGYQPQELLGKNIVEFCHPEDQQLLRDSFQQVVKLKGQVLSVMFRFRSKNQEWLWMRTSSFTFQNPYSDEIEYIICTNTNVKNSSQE

Sequence of HIF-2α PAS-B (Q99814 239-350): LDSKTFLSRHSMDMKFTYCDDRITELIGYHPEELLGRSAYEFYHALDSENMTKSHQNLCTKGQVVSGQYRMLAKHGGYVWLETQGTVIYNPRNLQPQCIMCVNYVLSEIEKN

HIF-2α PAS-B (from UniProt Q99814): the Kd is 120 µM.

Broadly, the Kd is a measure of binding affinity in units of concentration.
